Reference: article PMC2886353 (The Journal of Cell Biology, 2010)

B1: KIF17 (1-490)-3xmCit (domain or fragment, human, UniProt Q9P2E2-1 1-490, looked up)
chain: MASEAVKVVVRCRPMNQRERELRCQPVVTVDCARAQCCIQNPGAADEPPKQFTFDGAYHVDHVTEQIYNEIAYPLVEGVTEGYNGTIFAYGQTGSGKSFTMQGLPDPPSQRGIIPRAFEHVFESVQCAENTKFLVRASYLEIYNEDVRDLLGADTKQKLELKEHPEKGVYVKGLSMHTVHSVAQCEHIMETGWKNRSVGYTLMNKDSSRSHSIFTISIEMSAVDERGKDHLRAGKLNLVDLAGSERQSKTGATGERLKEATKINLSLSALGNVISALVDGRCKHVPYRDSKLTRLLQDSLGGNTKTLMVACLSPADNNYDETLSTLRYANRAKNIRNKPRINEDPKDALLREYQEEIKKLKAILTQQMSPSSLSALLSRQVPPDPVQVEEKLLPQPVIQHDVEAEKQLIREEYEERLARLKADYKAEQESRARLEEDITAMRNSYDVRLSTLEENLRKETEAVLQVGVLYKAEVMSRAEFASSAEYPPAF
B2: KIF17 (1-795)-3xmCit (domain or fragment, human, UniProt Q9P2E2-1 1-795, looked up)
chain: MASEAVKVVVRCRPMNQRERELRCQPVVTVDCARAQCCIQNPGAADEPPKQFTFDGAYHVDHVTEQIYNEIAYPLVEGVTEGYNGTIFAYGQTGSGKSFTMQGLPDPPSQRGIIPRAFEHVFESVQCAENTKFLVRASYLEIYNEDVRDLLGADTKQKLELKEHPEKGVYVKGLSMHTVHSVAQCEHIMETGWKNRSVGYTLMNKDSSRSHSIFTISIEMSAVDERGKDHLRAGKLNLVDLAGSERQSKTGATGERLKEATKINLSLSALGNVISALVDGRCKHVPYRDSKLTRLLQDSLGGNTKTLMVACLSPADNNYDETLSTLRYANRAKNIRNKPRINEDPKDALLREYQEEIKKLKAILTQQMSPSSLSALLSRQVPPDPVQVEEKLLPQPVIQHDVEAEKQLIREEYEERLARLKADYKAEQESRARLEEDITAMRNSYDVRLSTLEENLRKETEAVLQVGVLYKAEVMSRAEFASSAEYPPAFQYETVVKPKVFSTTDTLPSDDVSKTQVSSRFAELPKVEPSKSEISLGSSESSSLEETSVSEAFPGPEEPSNVEVSMPTEESRSRYFLDECLGQEAAGHLLGEQNYLPQEEPQEVPLQGLLGLQDPFAEVEAKLARLSSTVARTDAPQADVPKVPVQVPAPTDLLEPSDARPEAEAADDFPPRPEVDLASEVALEVVRTAEPGVWLEAQAPVALVAQPEPLPATAGVKRESVGMEVAVLTDDPLPVVDQQQVLARLQLLEQQVVGGEQAKNKDLKEKHKRRKRYADERRKQLVAALQNSDEDSGDW
B3: KIF17 (1-846)-3xmCit (domain or fragment, human, UniProt Q9P2E2-1 1-846, looked up)
chain: MASEAVKVVVRCRPMNQRERELRCQPVVTVDCARAQCCIQNPGAADEPPKQFTFDGAYHVDHVTEQIYNEIAYPLVEGVTEGYNGTIFAYGQTGSGKSFTMQGLPDPPSQRGIIPRAFEHVFESVQCAENTKFLVRASYLEIYNEDVRDLLGADTKQKLELKEHPEKGVYVKGLSMHTVHSVAQCEHIMETGWKNRSVGYTLMNKDSSRSHSIFTISIEMSAVDERGKDHLRAGKLNLVDLAGSERQSKTGATGERLKEATKINLSLSALGNVISALVDGRCKHVPYRDSKLTRLLQDSLGGNTKTLMVACLSPADNNYDETLSTLRYANRAKNIRNKPRINEDPKDALLREYQEEIKKLKAILTQQMSPSSLSALLSRQVPPDPVQVEEKLLPQPVIQHDVEAEKQLIREEYEERLARLKADYKAEQESRARLEEDITAMRNSYDVRLSTLEENLRKETEAVLQVGVLYKAEVMSRAEFASSAEYPPAFQYETVVKPKVFSTTDTLPSDDVSKTQVSSRFAELPKVEPSKSEISLGSSESSSLEETSVSEAFPGPEEPSNVEVSMPTEESRSRYFLDECLGQEAAGHLLGEQNYLPQEEPQEVPLQGLLGLQDPFAEVEAKLARLSSTVARTDAPQADVPKVPVQVPAPTDLLEPSDARPEAEAADDFPPRPEVDLASEVALEVVRTAEPGVWLEAQAPVALVAQPEPLPATAGVKRESVGMEVAVLTDDPLPVVDQQQVLARLQLLEQQVVGGEQAKNKDLKEKHKRRKRYADERRKQLVAALQNSDEDSGDWVLLNVYDSIQEEVRAKSKLLEKMQRKLRAAEVEIKDLQSEFQLEKIDYLAT
B4: KIF17 (1-738)-3xmCit (domain or fragment, human, UniProt Q9P2E2-1 1-738, looked up)
chain: MASEAVKVVVRCRPMNQRERELRCQPVVTVDCARAQCCIQNPGAADEPPKQFTFDGAYHVDHVTEQIYNEIAYPLVEGVTEGYNGTIFAYGQTGSGKSFTMQGLPDPPSQRGIIPRAFEHVFESVQCAENTKFLVRASYLEIYNEDVRDLLGADTKQKLELKEHPEKGVYVKGLSMHTVHSVAQCEHIMETGWKNRSVGYTLMNKDSSRSHSIFTISIEMSAVDERGKDHLRAGKLNLVDLAGSERQSKTGATGERLKEATKINLSLSALGNVISALVDGRCKHVPYRDSKLTRLLQDSLGGNTKTLMVACLSPADNNYDETLSTLRYANRAKNIRNKPRINEDPKDALLREYQEEIKKLKAILTQQMSPSSLSALLSRQVPPDPVQVEEKLLPQPVIQHDVEAEKQLIREEYEERLARLKADYKAEQESRARLEEDITAMRNSYDVRLSTLEENLRKETEAVLQVGVLYKAEVMSRAEFASSAEYPPAFQYETVVKPKVFSTTDTLPSDDVSKTQVSSRFAELPKVEPSKSEISLGSSESSSLEETSVSEAFPGPEEPSNVEVSMPTEESRSRYFLDECLGQEAAGHLLGEQNYLPQEEPQEVPLQGLLGLQDPFAEVEAKLARLSSTVARTDAPQADVPKVPVQVPAPTDLLEPSDARPEAEAADDFPPRPEVDLASEVALEVVRTAEPGVWLEAQAPVALVAQPEPLPATAGVKRESVGMEVAVLTDDPLPVVDQ
B5: KIF17 (1-369)-3xmCit (domain or fragment, human, UniProt Q9P2E2-1 1-369, looked up)
chain: MASEAVKVVVRCRPMNQRERELRCQPVVTVDCARAQCCIQNPGAADEPPKQFTFDGAYHVDHVTEQIYNEIAYPLVEGVTEGYNGTIFAYGQTGSGKSFTMQGLPDPPSQRGIIPRAFEHVFESVQCAENTKFLVRASYLEIYNEDVRDLLGADTKQKLELKEHPEKGVYVKGLSMHTVHSVAQCEHIMETGWKNRSVGYTLMNKDSSRSHSIFTISIEMSAVDERGKDHLRAGKLNLVDLAGSERQSKTGATGERLKEATKINLSLSALGNVISALVDGRCKHVPYRDSKLTRLLQDSLGGNTKTLMVACLSPADNNYDETLSTLRYANRAKNIRNKPRINEDPKDALLREYQEEIKKLKAILTQQMS

Molecular target: the molecule itself
Test: single-molecule step-wise photobleaching

Stoichiometry N, 2:
B1
B2
B3
B4
B5
